Measurements reported in the nanobody polyreactivity screen of Harvey et al. (2022).

experiment: yeast display, Sf9 membrane polyspecificity reagent, FACS + sequencing; frameworks hold sequencing errors
Method in brief: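 Using colony PCR, genes from sorted yeast display clones were amplified, then sequenced on MiSeq at 2 × 250 and filtered by CDR length. The clones had been stained with 10% biotinylated, detergent-solubilized Sf9 membrane reagent for 1 hour at 4 °C and sorted by FACS into low and high (top ~1%) gates on anti-HA and streptavidin fluorescence. Polyreactivity labels come from the gate of origin.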

Row | Sequence | polyreactivity (PSR sort gate)
1 | QVQLVESGGGLVQAGGSLRLSCAASGSIFYSNVMGWYRQAPGKESELVAAITRGGGTNYADSVKGRFTISRDNAKNTVYLQMNSLKPEDTAVYYCNRDPQKYRWIPRFDYWGQGTQVTVSS | low polyreactivity
2 | QVQLVESGGGLVQAGGSLRLSCAASGRIFSANAMGWYRQAPGKERELVATISTGGGRTYYADSVKGRFTISRDNAKNTVYLQMNSLKPVDTAVYYCNATRNYARVRYYYWGQGTQVTVSS | high polyreactivity
3 | QVQLVESGVGLVQAGGSLRLSCAASGRIFWDYGMGWYRQAPGKERELVAVITWGGGSTYYADSVKGRFTISRDNAKNTVYLQMNSLKPEDTAVYYCAKEYHYYYWGQGTEVTVSS | low polyreactivity
4 | QVQLVESGGGLVQAGGSLRLSCAASGSIFKYYAMGWYRQAPGKERELVAAISSSGGSTYYADSVKGRFTISRDYAKYTVYCQMNSLKPQDTAVYYCNTPYIWKNYDYWGQGSQVTVSS | high polyreactivity
5 | QVQLVESGGGLVQAGGSLRLSCAASGRIFTRYAMGWYRQAPGKERELVAVITRSGGSTYYADSVKGRFTISRDNAKNTVYLQMNSLKPEDTAVYYCNVDETGVLVAYSFDYWGQGTQVTVSS | low polyreactivity
6 | QVQLVETGGGLVQAGGSLRLSCAASGFTFTSYAMGWYRQAPGKERELVARITSSTGSTYYADSVKGRFTISRDNAKNTVDLQMNSMKPEDTAVYYCNARRQRNKSYNYWGQGTEVTVSS | high polyreactivity
7 | QVQLVESGAGLVQAGGSLRLTCAASGSNFYYYAMGWYRQAPGKERELVAAINGGDTYYADSVKGRFTISRDNAKNTVYLQMNSLKPEDTAVFYCAAEGVTVEWDYDYWGQGTQVTVSS | low polyreactivity
8 | QVQLVESGGGLVQAGGSLRLSCAASGRIFKFNAMGWYRQAPGKVRELVAATWSGGRTSYADSVKGRFTISRDNAKNTVYLQMNSLKPEDTAVYYCNAADWIDVQYDYGGQGTQVTVSS | low polyreactivity
9 | QVQLVESGGGLVQAGGSLRLSCAASGIIFGTNAMGWYRQAPGKERELVAYITSGGSTYADSVKGRFKISRDNAKNTVYLQMNSLKPEDTAVYSCAAYVFWAFYEYDYWGQGTQVTVSS | low polyreactivity
10 | QVQLVESGGGLVQAGGSLRLSCAASGSTFTPNVMGWSRQAPGKERELVAAINSSGGSTFYADSVKGRFTISRDNAKNTVYLQMNSLKPEDTAVYYCAASWHTPTVYDEYYYWGQGTQVTVSS | low polyreactivity
11 | QVQLVESGGGLVQAGGSLRLSCASSGFIIYSYAMGWYRQAPGKERELVAVISSRGGTTYYADSVKGRFTISRDNAKNTVYLQMNSLKPEDTAVYYCAADVWGPYDYWGQGTQVTVSS | low polyreactivity
12 | QVQLVESGGGLVQAGGSLRLSCAASGSTFEAYAMGWYRQAPGKERELVAAINFTGGRTYYADSVKGRFTISRDNAKNTVYLQINSLKPEDTAVYYCAARKWGVPYIDNDYWGQGTQVTVSS | low polyreactivity
13 | QVQLVESGGGLVQAGGSLSLICAASGSIFAPNAMGLYRQAPGKERELDATITKRGGNTYYADSVKGRFTISRDNAINTVYLKMNSLKPEDSAVFYCNDSPYSRWSSYGYDYWGQGTQVTVSS | low polyreactivity
14 | QVQLVESGGGLVQAGGSLRLRCAASGSTFGKNAMGWYRQAPGKERELVAAISKNGGSTYYADSVKGRFTISRDNAKNTVYILMNSLKPEDTAVYYCNTRRKNFVKSSQVEYWGQGTQVTVSS | high polyreactivity
15 | QVQLVESGGGLVQAGGRLRLSCAASGATFYVYAMGWYRQAPGKERELVATIDSTDGDTYADSVKGRCTISRDNAKKTVYLQMNSLKPEDTAGYDCAATDLNIYYGYYDSWYWYELDYWGQGTQVTVSS | high polyreactivity
16 | QVQLVESGGGLVQAGGSLRLSCAASGITLLGNTMGWYRQAPGKERELVAAIRTNSGRTYYADSVKGRFTISRDNAKNTVYLQMNSLKPEDTAVYYCAKRYFSYLGREMDYWGQGTQVTVSS | high polyreactivity
17 | QVQLVESGGGLVQAGGSLRLSCAASGGIFPLYAMGWYRQAPGKERELVASITSGGSTYYADSVKGRFTISRDNAKNTVYLQMNSLKPEDTAVYYCAADLRITSYNSWGQGSQVTVSS | low polyreactivity
18 | QVQLVESGGGLVQAGGSLRLSCAASGFIFIPYAKGWYRQAPGKERELVAAISVSDGTTYYADSVKGRFTISRDNAKNTVYFQMNSLKPEDTAVDYCAARRRAQQGTRDHDYWGQGTQVTVSS | high polyreactivity
19 | QVQLVESGGGLVQAGGSLRLSCAASGRIIRRYAMGWYRQAPGKERELVAAISRSGGSTYYADSVKGRFTISRDNAKNTVFLQMKRLKPEDTAVYYCNRRYITYNYDYWGQVTQVTVSS | high polyreactivity
20 | QDQLVESGGGLVQAGGSLRLSCAASGRTFIRNAMGWYRPAPGKERELVAAISRSGGRTYYADSVKGRFTISRDNAKNTVYLQMNSLKPEDTAVYYCAAGSYQRYAFDYWGQGTQVTVSS | high polyreactivity
21 | QVQLVESGGRLVQAGGSLRLSCAASGFILTSYAMGWYRQAPGKERELVAAISSRGGRTYYADSVKGRFTISRDNAKNTVYLQMNSLKPEDTAVYYCNAVVYVVGDFDYWGQGTQVTGSS | high polyreactivity
22 | QVQLVESGGGLVQAGGSLRLSCAASGFIFWYYALGWYRQAPGKERELVAAISARDGSTYYADSVKGRFTISRDNAKNTVYLQMNSLKPEDTAVYYCNAVQRYPKFRMDYWGQGTQVTVSS | low polyreactivity

Row | Sequence | polyreactivity (PSR sort gate)
23 | QVHLEESWGGLVQAGGSLSISCAASGSIFRPNAMGWYRPAPGKERELVAAINKIGGRTYYADSVKGRFTISRDNAKNTVYLQMNSLKPEDTAVYYCNAGGGYHYWGQGTQVTVSS | high polyreactivity
24 | QVQLRESGAGGRQPAPELRGERQYFYWSADGLVSQPPGKEREFVAGIDRGTITNYADSVRGRFTISRDNAKNTVYLQMNSLKPEDTAVYYCNAEYRRRPKLGDEDEYWGHGTQVTVSS | high polyreactivity
25 | QVQLVESGGGLVQAGGSLRLSCAASGSIFTYYAKGWYRQAPGKERELVAAISRRGTRTYYADSVKGRFTISRDNAKNTVYLQMNSLKPEDTAVYYCAKVGYTYRAYEFAYWGQGTQVTVSS | high polyreactivity
26 | QVQLVESGGGLVQAGGSRRLSCAASGGTFYYYAMGWYRQAPGKERELVAAIRGSGGSTYYADSVKGRFPISRDNAKNTVYLQMNSLKPVDTAVYYCATRGGYPKGYGYLAFNYWGQGTQVTVSS | high polyreactivity
27 | QVQLVESGGGLVQAGGSLRLSCAASGFIFSSYAMGWYRQAPGKERELVAAITSGGSTYYADSVKGRFTISRDNAKNTVYLQMNSLKPEDTAVYYCAADHWDGQYWFDYWGQGTQVTVSS | low polyreactivity
28 | QVQLVESGGGLVQAGGSLRLSCAASGRIFGSYVMGWYRQAPGKVRELVAAISRRGGSTYYADSVKGRFTISRDNAKNTVYLQMNSLKPEDTAVYYCAAEFSPSSNPYDYWGQGTQVTVSS | high polyreactivity
29 | QVQLVESGGGLVQAGGSLRLSCAASGYISWAYVMGWYIQAPGKERELVAAISSGTSTYYADSVKGRFTISRDNAKNTVYLQMNSLKPEDTAVYYCAAYYYSYPTNGGYGYWGQGTQVTVSS | low polyreactivity
30 | QVQLVESGGGLVQAGGSLRLSCAASGRIYRSYAMGWYRQAPGKERDLVAAITKSGGGTYYADTVKGRYTISRVNAKNTVYLQMNSLNPEDTAVYYCGARGHGGYYYWGQGTQVTVSS | high polyreactivity
31 | QVQLVESGGGLVQAGGSLRLSCAASGITFNYYTMVWYRQAPGKERELVARITISGGSTYYADSVKGRFTISRDNAKNTVDFQMYSLKPEDTAVYYCNVRLYGYRHDYWGQGTQVTVSS | high polyreactivity
32 | QVQLVESGGGLVQAGGSLRLSCAASGSIFPTYAMGWYRQAPGKERELVAAIRSGSNTYYADSVKGRFTISRDNAKNTVYLQMNSLKPEDTAVYYCNVGPQRKYPGRRTVPFGYWGQGTQVTVSS | low polyreactivity
33 | QVQLVESGGGLVQAGGSLRLSCAASGSTFPRNDMGWYRQAPGKERELVAAISRGGSTNNADSVKGRFTISRDNAKNTVYLQMNSLKPEDTAVYYCAAQIFESAYGMDYWGQGTQVTVSS | low polyreactivity
34 | QVQLVESGGGLVQAGGSLRLSCAASGSIFNGYAMGWYRQAPGKERELVAAISKRGGSTYYADSVKGRFTISRDNAKNTVYLQMNSLKPEDTAVYYCAARRLFPYGYWGQGTQVTVSS | high polyreactivity
35 | QVQLVESGGGLVQAGGSLRLSCAASGRIFKGYAMGWYRQAPGKERELVAAITWRGGTTYYADSVKGRFTISRDNAKNTVYLQMNSLKPEDTAVYYCAAVTRRYVLSTFYYWGQGTQVTVSS | high polyreactivity
36 | QVQLVESAGGLVQAGGSLRLSCAASGITFYEYVMGWYRQAPGKERELVASIDWSGGGTYYADSVKGRFTISRDNAKNTVYLQMNSLKPEDTAVYYCNADYFDYSRPRYDYWGQGTQVTVSS | low polyreactivity
37 | QVQLVESGGGLVQAGGSLRLSCAASGSTFVPNAMGWYRQAPGTERELVAAITVDGDDTYYADSVKGRFTISRDNAKNTVYFQMNSLKPEVTAVYYCKADPDVPFFSWLTGRGTYDYWGQGTQVTVSS | low polyreactivity
38 | QVQLVDSGGGLVQAGGSLRISCAASGLIFSKNVMGWYRQAPGKEREFVAAISQRGGSTYYADSVKGRFTISRDIAKNTVYLQMNSLKPEDTAVYYCAADNTVSHEDYWGQGTQVTVSS | high polyreactivity
39 | QVQLEESGGGLVQAGGSLRLSCAASGLIFIYNTMGWYRQAPGKERQLVAAISGRGGSTYYADSVKGRFTISRDNAKNSVYLQMNSLKPEDTAVYYCAAQDTYHSYGLYSWGQGTQVTVSS | low polyreactivity
40 | QVQLVESGGGLVQAGGSLRLSCAASGSIFGSNAMGWYRQAPGKERELVAAISVRDGSTSYADSVKGRFTISRDNAKNTVYLQMNSLKPEDPAVYYCTAKSLAERYYRPEMDYWGQGTQVTVSS | low polyreactivity
41 | QVQHVESGGGLVQAGGSLRLSCAASGRIFHWYAMGWYRQAPGKERELVAAIRWTGGSTYYADSVKGRFTISRDNAKNTVYLEMNSLKPEDTAVYYCAAKGYTGIFYEMDYWGQGTQVTVSS | low polyreactivity
42 | QVQLVESGGGLVQAGGSLRLSCAASGFTFRFYAMGWYRQAPGKERELVAAISSSSSSTYYADSVKGRFTISRDNAKNTVYLQMNSLKPEDTAVYYCNAGGYTRGDYWGQGTQVTVSS | high polyreactivity
43 | QFQLVESVGCLVQAGGSLRLSCAASGILFSWYAMGWYRQPPGKERELVAAISKGGGSTYYADSVKGRFTISRDNAKNTVYLQMNSLIPEDTAVYYCAADSSYGYGYWGQGTQVTVSS | high polyreactivity
